Like-named read-outs stand apart in the source and are kept apart here.
T1: RIG-I helicase-RD (human, UniProt O95786 232-925)
T1 sequence: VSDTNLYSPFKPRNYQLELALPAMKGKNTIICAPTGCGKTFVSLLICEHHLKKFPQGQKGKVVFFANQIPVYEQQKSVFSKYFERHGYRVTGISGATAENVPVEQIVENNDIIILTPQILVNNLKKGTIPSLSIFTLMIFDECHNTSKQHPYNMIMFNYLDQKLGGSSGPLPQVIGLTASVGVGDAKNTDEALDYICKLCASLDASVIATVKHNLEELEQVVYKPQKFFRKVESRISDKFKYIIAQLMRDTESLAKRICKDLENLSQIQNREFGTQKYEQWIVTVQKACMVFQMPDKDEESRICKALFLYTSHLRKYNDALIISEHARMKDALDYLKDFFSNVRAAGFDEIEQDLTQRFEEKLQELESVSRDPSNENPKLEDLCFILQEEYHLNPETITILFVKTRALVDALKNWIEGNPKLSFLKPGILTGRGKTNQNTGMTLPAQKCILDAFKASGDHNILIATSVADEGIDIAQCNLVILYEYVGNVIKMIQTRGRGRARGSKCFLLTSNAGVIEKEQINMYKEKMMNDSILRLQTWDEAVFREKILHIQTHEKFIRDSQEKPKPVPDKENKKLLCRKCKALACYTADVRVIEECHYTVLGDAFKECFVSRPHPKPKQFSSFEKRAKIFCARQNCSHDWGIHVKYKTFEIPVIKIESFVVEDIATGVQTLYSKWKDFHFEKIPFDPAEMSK

T2: RIG-I helicase domain (human, UniProt O95786 232-794)
T2 sequence: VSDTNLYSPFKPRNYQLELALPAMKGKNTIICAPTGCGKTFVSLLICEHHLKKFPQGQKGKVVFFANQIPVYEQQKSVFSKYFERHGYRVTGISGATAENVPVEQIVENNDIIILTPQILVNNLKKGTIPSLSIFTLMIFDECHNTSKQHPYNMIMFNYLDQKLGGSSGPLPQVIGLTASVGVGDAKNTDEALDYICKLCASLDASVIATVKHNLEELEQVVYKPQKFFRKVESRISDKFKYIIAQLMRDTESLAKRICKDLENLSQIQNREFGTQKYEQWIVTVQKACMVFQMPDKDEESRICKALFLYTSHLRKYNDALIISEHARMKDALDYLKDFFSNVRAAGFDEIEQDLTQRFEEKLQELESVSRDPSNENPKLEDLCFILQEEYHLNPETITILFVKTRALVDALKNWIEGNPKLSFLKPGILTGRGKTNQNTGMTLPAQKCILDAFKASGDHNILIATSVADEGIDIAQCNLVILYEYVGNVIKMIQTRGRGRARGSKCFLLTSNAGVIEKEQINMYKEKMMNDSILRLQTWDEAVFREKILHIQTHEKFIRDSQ

T3: RIG-I full-length (human, UniProt O95786 1-925)
T3 sequence: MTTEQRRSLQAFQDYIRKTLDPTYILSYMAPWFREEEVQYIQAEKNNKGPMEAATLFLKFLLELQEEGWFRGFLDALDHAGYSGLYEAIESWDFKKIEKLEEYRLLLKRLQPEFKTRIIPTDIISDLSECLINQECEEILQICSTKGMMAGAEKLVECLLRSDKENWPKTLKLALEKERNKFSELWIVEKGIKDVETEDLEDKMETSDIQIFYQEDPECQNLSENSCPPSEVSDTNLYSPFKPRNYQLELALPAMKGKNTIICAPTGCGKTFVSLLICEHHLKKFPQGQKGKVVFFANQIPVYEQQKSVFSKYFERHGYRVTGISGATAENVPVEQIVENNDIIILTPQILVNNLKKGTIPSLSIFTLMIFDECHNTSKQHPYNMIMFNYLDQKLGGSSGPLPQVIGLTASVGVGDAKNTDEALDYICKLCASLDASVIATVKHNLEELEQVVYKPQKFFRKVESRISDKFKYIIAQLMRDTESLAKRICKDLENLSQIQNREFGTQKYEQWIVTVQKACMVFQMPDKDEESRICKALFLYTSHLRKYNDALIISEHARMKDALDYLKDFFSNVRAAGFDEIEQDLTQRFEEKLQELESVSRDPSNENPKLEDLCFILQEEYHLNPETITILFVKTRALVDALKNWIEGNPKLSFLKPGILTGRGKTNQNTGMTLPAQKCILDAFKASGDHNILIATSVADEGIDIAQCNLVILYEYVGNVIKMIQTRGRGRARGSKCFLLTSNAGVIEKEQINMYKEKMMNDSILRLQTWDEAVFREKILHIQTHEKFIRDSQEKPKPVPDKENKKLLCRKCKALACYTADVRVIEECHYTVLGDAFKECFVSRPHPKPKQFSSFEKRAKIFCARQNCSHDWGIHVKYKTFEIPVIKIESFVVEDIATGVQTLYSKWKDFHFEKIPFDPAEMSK

T4: RIG-I RD (repressor domain) (human, UniProt O95786 795-925)
T4 sequence: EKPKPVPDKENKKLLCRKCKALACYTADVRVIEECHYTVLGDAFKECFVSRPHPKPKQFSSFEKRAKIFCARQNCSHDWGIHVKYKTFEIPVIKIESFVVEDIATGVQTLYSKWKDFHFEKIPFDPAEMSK

B1: 14bp pal dsRNA (dsRNA)
RNA 1: CGACGCUAGCGUCG
RNA 2: CGACGCUAGCGUCG
modifications: 5-iodouridine derivative also crystallized
B2: 14bp dsRNA-F (dsRNA)
RNA 1: GGAGAGAACCGCCU
RNA 2: AGGCGGUUCUCUCC
modifications: 5'-OH

Key:
RIG-I helicase-RD = molecular target: T1, RIG-I helicase-RD; experiment: X-ray crystallography
RIG-I helicase domain [1] = molecular target: T2, RIG-I helicase domain; experiment: fluorescence anisotropy
RIG-I full-length = molecular target: T3, RIG-I full-length; experiment: fluorescence anisotropy
RIG-I helicase domain [2] = molecular target: T2, RIG-I helicase domain; experiment: fluorescence anisotropy; remark: listed apart in the source
[3] = molecular target: T4, RIG-I RD (repressor domain); experiment: fluorescence anisotropy

Binder | binding result (RIG-I helicase-RD) | Kd (RIG-I helicase domain [1]) [nM] | Kd (RIG-I full-length) [nM] | Kd (RIG-I helicase domain [2]) [nM] | Kd [3] [nM]
B1 | binds | – | – | – | –
B2 | – | 1300 | 1.2 | 436 ± 121 | 2.6 ± 1.2
